Assay results as given in patent US20180346602A1.

How the values were obtained:
[1] = molecular target: anti-VEGF/ANG2 antibody (IgG1 subclass with mutations P329G/L234A/L235A/I253A/H310A/H435A) [IgG part: P01857]; experiment: sandwich ELISA assay A; capture M1.7.10-Bi; antibody 1 at 3 ng/mL
[2] = molecular target: anti-VEGF/ANG2 antibody (IgG1 subclass with mutations P329G/L234A/L235A/I253A/H310A/H435A) [IgG part: P01857]; experiment: sandwich ELISA assay A; capture M1.7.10-Bi; antibody 1 at 13 ng/mL
[3] = molecular target: anti-P-Selectin antibody (IgG4 subclass with mutations S228P/L235E) [IgG part: P01861]; experiment: sandwich ELISA assay A; capture M1.7.10-Bi; antibody 4 at 25 ng/mL
[4] = molecular target: anti-VEGF/ANG2 antibody (wild-type IgG1 subclass) (human) [IgG part: P01857]; experiment: sandwich ELISA assay C; capture on SA plate; tracer FcγRI-Dig; analyte 3 ng/mL
[5] = molecular target: anti-VEGF/ANG2 antibody (wild-type IgG1 subclass) (human) [IgG part: P01857]; experiment: sandwich ELISA assay C; capture on SA plate; tracer FcγRI-Dig; analyte 6 ng/mL
[6] = molecular target: anti-VEGF/ANG2 antibody (wild-type IgG1 subclass) (human) [IgG part: P01857]; experiment: sandwich ELISA assay C; capture on SA plate; tracer FcγRI-Dig; analyte 13 ng/mL
[7] = molecular target: anti-VEGF/ANG2 antibody (wild-type IgG1 subclass) (human) [IgG part: P01857]; experiment: sandwich ELISA assay C; capture on SA plate; tracer FcγRI-Dig; analyte 25 ng/mL
[8] = molecular target: anti-P-Selectin antibody (IgG4 subclass with mutations S228P/L235E) (human) [IgG part: P01861]; experiment: sandwich ELISA assay C; capture on SA plate; tracer FcγRI-Dig; analyte 50 ng/mL
[9] = molecular target: anti-VEGF/ANG2 antibody (IgG1 subclass with mutations P329G/L234A/L235A) (human) [IgG part: P01857]; experiment: as above
[10] = molecular target: anti-VEGF/ANG2 antibody (wild-type IgG1 subclass) (human) [IgG part: P01857]; experiment: sandwich ELISA assay B; capture on SA plate; tracer M1.7.10-Dig; analyte 3 ng/mL
[11] = molecular target: anti-VEGF/ANG2 antibody (wild-type IgG1 subclass) (human) [IgG part: P01857]; experiment: sandwich ELISA assay B; capture on SA plate; tracer M1.7.10-Dig; analyte 25 ng/mL
[12] = molecular target: anti-VEGF/ANG2 antibody (wild-type IgG1 subclass) (human) [IgG part: P01857]; experiment: sandwich ELISA assay B; capture on SA plate; tracer M1.7.10-Dig; analyte 50 ng/mL
target antibodies [13] = experiment: depletion of target antibody from sample; concentration before depletion 1.00 µg/mL
target antibodies [14] = experiment: depletion of target antibody from sample; concentration before depletion 3.00 µg/mL
target antibodies [15] = experiment: depletion of target antibody from sample; concentration before depletion 100.00 µg/mL
[16] = molecular target: anti-VEGF/ANG2 antibody (wild-type IgG1 subclass) (human) [IgG part: P01857]; experiment: sandwich ELISA assay C; capture on SA plate; tracer FcγRI-Dig; analyte 0 ng/mL (blank)
[17] = molecular target: anti-VEGF/ANG2 antibody (IgG1 subclass with mutations P329G/L234A/L235A/I253A/H310A/H435A) [IgG part: P01857]; experiment: sandwich ELISA assay E; tracer M1.7.10-Dig; analyte 1) at 50 ng/mL
[18] = molecular target: anti-VEGF/ANG2 antibody (IgG1 subclass with mutations P329G/L234A/L235A) [IgG part: P01857]; experiment: sandwich ELISA assay E; tracer M1.7.10-Dig; analyte 2) at 25 ng/mL
[19] = molecular target: anti-VEGF/ANG2 antibody (IgG1 subclass with mutations P329G/L234A/L235A) [IgG part: P01857]; experiment: sandwich ELISA assay E; tracer M1.7.10-Dig; analyte 2) at 100 ng/mL
[20] = molecular target: anti-VEGF/ANG2 antibody (IgG1 subclass with mutations P329G/L234A/L235A) [IgG part: P01857]; experiment: sandwich ELISA assay E; tracer M1.7.10-Dig; analyte 2) at 6.25 ng/mL
[21] = molecular target: anti-VEGF/ANG2 antibody (IgG1 subclass with mutations P329G/L234A/L235A) [IgG part: P01857]; experiment: sandwich ELISA assay E; tracer M1.7.10-Dig; analyte 2) at 3.124 ng/mL
[22] = molecular target: anti-VEGF/ANG2 antibody (IgG1 subclass with mutations P329G/L234A/L235A) [IgG part: P01857]; experiment: sandwich ELISA assay E; tracer M1.7.10-Dig; analyte 2) at 0 ng/mL (blank)
[23] = molecular target: anti-Dig antibody (IgG1 subclass with mutations P329G/L234A/L235A) [IgG part: P01857]; experiment: sandwich ELISA assay D; tracer M1.7.10-Dig; analyte conc. not printed (row 1 of 8)
[24] = molecular target: anti-Dig antibody (IgG1 subclass with mutations P329G/L234A/L235A) [IgG part: P01857]; experiment: sandwich ELISA assay D; tracer M1.7.10-Dig; analyte conc. not printed (row 6 of 8)
[25] = molecular target: anti-Dig antibody (IgG1 subclass with mutations P329G/L234A/L235A) [IgG part: P01857]; experiment: sandwich ELISA assay D; tracer M1.19.31-Dig; analyte conc. not printed (row 1 of 8)
[26] = molecular target: anti-Dig antibody (IgG1 subclass with mutations P329G/L234A/L235A) [IgG part: P01857]; experiment: sandwich ELISA assay D; tracer M1.19.31-Dig; analyte conc. not printed (row 8 of 8)

| signal [OD405 nm] [1] | signal [OD405 nm] [2] | signal [OD405 nm] [3] | signal [OD405 nm] [4] | signal [OD405 nm] [5] | signal [OD405 nm] [6] | signal [OD405 nm] [7] | signal [OD405 nm] [8] | signal [OD405 nm] [9] | signal [OD405 nm] [10] | signal [OD405 nm] [11] | signal [OD405 nm] [12] | concentration after depletion (target antibodies [13]) | recovery [%] (target antibodies [13]) | concentration after depletion (target antibodies [14]) | recovery [%] (target antibodies [14]) | concentration after depletion (target antibodies [15]) | recovery [%] (target antibodies [15]) | signal [OD405 nm] [16] | signal [OD405 nm] [17] | Binder | other results |
| --- | --- | --- | --- | --- | --- | --- | --- | --- | --- | --- | --- | --- | --- | --- | --- | --- | --- | --- | --- | --- | --- |
| 0.057 OD405 nm | 0.061 OD405 nm | 0.057 OD405 nm | 0.069 OD405 nm | 0.064 OD405 nm | 0.07 OD405 nm | 0.066 OD405 nm | 0.054 OD405 nm | 0.057 OD405 nm | 0.037 OD405 nm | 0.047 OD405 nm | 0.049 OD405 nm | 0.0003 µg/mL | 0.031% | 0.0023 µg/mL | 0.008% | 0.0143 µg/mL | 0.014% | 0.069 OD405 nm |  | anti-AAA variant Fc-region antibody M1.6.22 (antibody, V domains shown) VH: EVQLVESGGDLVKPGGSLKLSCAASGFTFSSYGMSWVRQTPDKRLEWVATISSGGSYIYYPDSVKGRFTISRDNAKNTLYLQMSSLKSEDTAMYYCARLGMITTGYAMDYWGQGTSVTVSS VL: DVLMTQTPLSLPVSLGDQASISCRSSQTIVHSTGHTYLEWFLQKPGQSPKLLIYKVSNRFSGVPDRFSGSGSGTDFTLKISRVEAEDLGVYYCFQGSHVPYTFGGGTKLEIK |  |
| 0.038 OD405 nm | 0.04 OD405 nm | 0.037 OD405 nm |  |  |  |  | 1.15 OD405 nm | 1.21 OD405 nm |  |  |  | 0.0007 µg/mL | 0.067% | 0.0023 µg/mL | 0.078% | 0.0173 µg/mL | 0.017% |  | 1.95 OD405 nm | anti-variant (human) Fc-region antibody M1.3.17 (antibody, V domains shown) VH: EVKLLESGGGLVQPGGSLKLSCAASGIDFRRYWMNWVRQAPGKGLEWIGEIDPDSSTINYTPSLKDKFIISRDNAKNTMYLQMRKVRSEDTALYYCARPYDYGAWFAYWGQGTLVTVSA VL: QAVVTQESALTTSPGETVTLTCRSTTGAVTTSNYANWVQEKPDHLFTGLIGGTNKRAPGVPARFSGSLIGDKAALTITGAQTEDEAIYFCALWYSDHWVFGGGTKLTVL | signal [OD405 nm] [18]: 1.48 OD405 nm; signal [OD405 nm] [19]: 2.27 OD405 nm; signal [OD405 nm] [20]: 0.577 OD405 nm; signal [OD405 nm] [21]: 0.316 OD405 nm; signal [OD405 nm] [22]: 0.027 OD405 nm; signal 10% cynomolgus serum [OD405 nm] [23]: 2.12 OD405 nm; signal 10% human serum [OD405 nm] [23]: 2.66 OD405 nm; signal buffer [OD405 nm] [23]: 0.053 OD405 nm; signal 10% cynomolgus serum [OD405 nm] [24]: 0.065 OD405 nm; signal 10% human serum [OD405 nm] [24]: 2.53 OD405 nm; signal buffer [OD405 nm] [24]: 0.032 OD405 nm; signal 10% cynomolgus serum [OD405 nm] [25]: 1.87 OD405 nm; signal 10% human serum [OD405 nm] [25]: 2.58 OD405 nm; signal buffer [OD405 nm] [25]: 0.05 OD405 nm; signal 10% cynomolgus serum [OD405 nm] [26]: 0.077 OD405 nm; signal 10% human serum [OD405 nm] [26]: 1.8 OD405 nm; signal buffer [OD405 nm] [26]: 0.036 OD405 nm |
| 0.046 OD405 nm | 0.047 OD405 nm | 0.048 OD405 nm | 0.053 OD405 nm | 0.057 OD405 nm | 0.057 OD405 nm | 0.063 OD405 nm | 0.066 OD405 nm | 0.094 OD405 nm | 0.033 OD405 nm | 0.041 OD405 nm | 0.04 OD405 nm |  |  |  |  |  |  | 0.073 OD405 nm | 1.94 OD405 nm | anti-variant (human) Fc-region antibody M1.7.24 (antibody, V domains shown) VH: EVKLLESGGGLVQPGGSLKLSCAASGFDFSRYWMNWVRQAPGKGLEWIGEITPDSSTINYTPSLKDKFIISRDNAKNTLYLQMIKVRSEDTALYYCVRPYDYGAWFASWGQGTLVTVSA VL: QAVVTQESALTTSPGETVTLTCRSSTGAVTTSNYANWVQEKPDHLFTGLIGGTNKRAPGVPARFSGSLIGDKAALTITGAQTEDEAIYFCALWYSNHWVFGGGTKLTVL | signal [OD405 nm] [18]: 1.39 OD405 nm; signal [OD405 nm] [19]: 2.22 OD405 nm; signal [OD405 nm] [20]: 0.528 OD405 nm; signal [OD405 nm] [21]: 0.298 OD405 nm; signal [OD405 nm] [22]: 0.028 OD405 nm; signal 10% cynomolgus serum [OD405 nm] [23]: 2.37 OD405 nm; signal 10% human serum [OD405 nm] [23]: 2.74 OD405 nm; signal buffer [OD405 nm] [23]: 0.062 OD405 nm; signal 10% cynomolgus serum [OD405 nm] [24]: 0.05 OD405 nm; signal 10% human serum [OD405 nm] [24]: 2.4 OD405 nm; signal buffer [OD405 nm] [24]: 0.031 OD405 nm; signal 10% cynomolgus serum [OD405 nm] [25]: 2.25 OD405 nm; signal 10% human serum [OD405 nm] [25]: 2.5 OD405 nm; signal buffer [OD405 nm] [25]: 0.054 OD405 nm; signal 10% cynomolgus serum [OD405 nm] [26]: 0.035 OD405 nm; signal 10% human serum [OD405 nm] [26]: 1.42 OD405 nm; signal buffer [OD405 nm] [26]: 0.033 OD405 nm |
